Experimental data published in article PMC8173604 (Cell, 2021).

Molecular target: purified HLA-A*02:01 MHC molecule (human | )
Assay: radioligand binding

| Binder | IC50 [nM] |
| --- | --- |
| GLITLSYHL [GLITLSYHL, HLA-I peptide from S.iORF1/2] | < 0.5 |
| MLLGSMLYM [MLLGSMLYM, HLA-I peptide from S.iORF1/2] | < 0.5 |
